Earlier results, collected in article PMC5938170.

Legend:
[1] = molecular target: Met (Homo sapiens) (UniProt P08581)
[2] = molecular target: EGFR (Homo sapiens) (UniProt P00533)

Sequence of UniProt P08581 (P08581 25-932): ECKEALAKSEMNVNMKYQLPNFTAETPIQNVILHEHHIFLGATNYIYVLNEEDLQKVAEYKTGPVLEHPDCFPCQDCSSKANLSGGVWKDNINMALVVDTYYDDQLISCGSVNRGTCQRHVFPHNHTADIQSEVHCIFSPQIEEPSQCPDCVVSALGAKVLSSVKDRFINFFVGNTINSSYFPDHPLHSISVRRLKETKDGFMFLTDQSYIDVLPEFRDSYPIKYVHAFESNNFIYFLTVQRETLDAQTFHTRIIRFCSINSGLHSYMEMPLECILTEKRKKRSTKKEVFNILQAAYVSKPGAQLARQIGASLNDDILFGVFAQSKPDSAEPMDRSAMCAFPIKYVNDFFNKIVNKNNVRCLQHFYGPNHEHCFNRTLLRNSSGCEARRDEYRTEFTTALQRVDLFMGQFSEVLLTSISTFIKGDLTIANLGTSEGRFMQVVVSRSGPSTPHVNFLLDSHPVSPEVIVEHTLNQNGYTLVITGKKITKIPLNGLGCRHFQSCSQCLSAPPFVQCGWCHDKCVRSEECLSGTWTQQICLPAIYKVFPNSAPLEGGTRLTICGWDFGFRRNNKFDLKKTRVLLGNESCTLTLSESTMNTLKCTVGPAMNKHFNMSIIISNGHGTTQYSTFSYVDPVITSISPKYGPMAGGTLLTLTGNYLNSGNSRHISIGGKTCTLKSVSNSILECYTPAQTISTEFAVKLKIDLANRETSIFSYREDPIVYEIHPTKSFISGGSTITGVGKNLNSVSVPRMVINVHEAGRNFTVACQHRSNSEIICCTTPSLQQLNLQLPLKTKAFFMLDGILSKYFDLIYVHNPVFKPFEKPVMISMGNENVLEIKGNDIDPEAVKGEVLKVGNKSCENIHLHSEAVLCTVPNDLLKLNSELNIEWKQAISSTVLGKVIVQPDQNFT

Kd [1]: 2 nM
Kd [2]: 75 nM
Substance: Decorin (from UniProt P07585)
